Measurements: US20250368734A1 (ANTENGENE BIOLOGICS, published 2025)
Substitutions are numbered along the chain they refer to.

T1: mouse GPRC5D (mouse, UniProt Q9JIL6 1-344)
T1 construct: whole, on cells; HEK293T-mGPRC5D cells; also called mGPRC5D; murine GPRC5D
T1 sequence (looked up): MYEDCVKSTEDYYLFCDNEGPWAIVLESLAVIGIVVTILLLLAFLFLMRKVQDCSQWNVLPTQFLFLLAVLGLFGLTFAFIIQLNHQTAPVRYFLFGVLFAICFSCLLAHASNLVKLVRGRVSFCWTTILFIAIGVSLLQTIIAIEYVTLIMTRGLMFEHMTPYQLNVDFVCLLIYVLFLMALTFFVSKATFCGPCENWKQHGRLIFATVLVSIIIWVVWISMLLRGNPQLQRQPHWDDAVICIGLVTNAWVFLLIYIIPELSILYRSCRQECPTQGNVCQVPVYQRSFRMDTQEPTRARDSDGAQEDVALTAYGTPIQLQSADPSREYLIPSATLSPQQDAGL

B1: ch87A3G8 (antibody, V domains shown)
VH: QVQLKESGPGLVAPSQSLSITCTVSGFSLSSYSVYWVRQPPGKGLEWLGVIWAGGSTNYNSALMSRLSINKDKSKSQVFLKMNSLQTDDSAIYYCAMRWLPRGLDFWGQGTSVTVSS
VL: DIVMTQSHKFMSTSVGDRVSITCKASQDVGTAVAWYQQKPGQSPKLLIYWASTRHTGVPDRFTGSGSGTDFTLTISNVQSEDLADYFCQQYSTYYTFGGGTKLEIK
B2: ch90G6H3 (antibody, V domains shown)
VH: QAYLQQSGAELVRSGASVKMSCKASGYTFTSYIMHWVKQTPGQGLEWIGYIYPGNGGTNYNQKFKDKATLSADTSSSTAYMQINSLTSEDSAVYFCARWGLRQGFAYWGQGTLVSVSA
VL: DIVMTQSQKFMSTSVGDRVSVTCKASQNVGGNVAWYQQKPGQSPKALIYSTSYRNSGVPDRFTGSGSGTDFTLTISNVQSEDLAEYFCQQYNSYPFTFGSGTKLEIR
B3: ch101B3G3 (antibody, V domains shown)
VH: EVQLQQSGPELVKPGASMKISCKASGYSFTGYTMNWVKQSHGKNLEWIGLINPYNGGTRYNQKFKDKATLTVDKSSSTAYMELLSLTSEDSAVYYCARWLLRYAMDYWGQGTSVTVSS
VL: DIVMTQSQKFMSTSVGDRVSITCKASQNVGNAVAWYQQKPGHSPKLLISSASNRKNGVPDRFTGSGSGTDFTLTVSNMQSEDLADYFCQQYSDSSWTFGGGTKLEIK
B4: ch89F11E3 (antibody, V domains shown)
VH: QVQLQQSGAELARPGASVKMSCKASGYTFTSSTIHWVKQRPGQGLAWIGYIVPSTGYTNYNQKFKDKATLTADKSSSTAYMQLTSLTSEDSAVYYCARSDGYPFGYSMAYWGQGTSVTVSS
VL: DIQMNQSPSSLSASLGDTITITCHASQNINVWLSWYHQKPGNIPKLLIYKASNLHTGVPSRFSGSGSGTGFTLTISRLQPEDIATYYCQQGQSYPFTFGSGTKLEIK
B5: ch110B4H5 (antibody, V domains shown)
VH: EVQLQQSGPELVKPGASVKMSCKASGYTFTFYIMHWVKQKPGQGPEWIGYINPYNDGTKYNAKFKGKATLSSDRSSSTAYMELSSLTSEDSAVYYCARGGVRRYFDVWGAGTPVTVSS
VL: DIQMTQSPSSLSASLGERVSLTCRSSQDIGSNLNWLQQEPDGTIKRLIYATFSLDSGVPKRFSGSRSGSHYSLTISSLESEDFVVYYCLQYGSFPYTFGGGTKLEIK
B6: ch108C4C12 (antibody, V domains shown)
VH: EVQLQQSGPELVKPGASVKMSCKASGYTFTSYVIHWVKQKTGQGLEWIGYFNPYNDGTKYNEEFKGKATLTSDKSSNTAYMELNSLTSDDSAVYFCARGGVRRYFDVWGAGTTVTVSS
VL: B5 VL with S25A, S53G, H70D, V85D, L89Q, G92A

What follows are binders tested against T2, human GPRC5D (human, UniProt Q9NZD1 1-345) (assay: FACS, CHOS-hGPRC5D cells).
T2 construct: whole, on cells; also called hGPRC5D; G-protein coupled receptor family C group 5 member D
T2 sequence (Q9NZD1 whole entry): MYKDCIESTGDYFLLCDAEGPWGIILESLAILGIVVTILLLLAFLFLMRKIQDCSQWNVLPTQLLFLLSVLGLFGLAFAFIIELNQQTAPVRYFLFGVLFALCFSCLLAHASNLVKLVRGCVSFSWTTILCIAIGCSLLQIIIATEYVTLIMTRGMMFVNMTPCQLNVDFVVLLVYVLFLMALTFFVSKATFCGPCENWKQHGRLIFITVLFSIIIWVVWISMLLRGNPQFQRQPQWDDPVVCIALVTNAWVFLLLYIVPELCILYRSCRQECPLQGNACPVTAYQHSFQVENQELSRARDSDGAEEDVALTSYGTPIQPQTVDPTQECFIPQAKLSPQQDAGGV

EC50 | Top | Binder
2.81 nM | 1950 | B1
8.51 nM | 2250 | B2
4.85 nM | 3940 | B3
2.41 nM | 2600 | B4
2.74 nM | 1820 | B5
0.463 nM | 2040 | B6

The binders below were run against T1, mouse GPRC5D (assay: FACS, HEK293T-mGPRC5D cells).

EC50 | Top | Binder
15 nM | 76200 | B1
12.3 nM | 55300 | B2
38.6 nM | 57600 | B3
14.2 nM | 77300 | B4
14.2 nM | 42900 | B5
109 nM | 25500 | B6

The binders below were run against T3, cynomolgus monkey GPRC5D (cynomolgus monkey) (assay: FACS, HEK293T-cynoGPRC5D cells).
T3 construct: whole, on cells; HEK293T-cynoGPRC5D cells; also called cynoGPRC5D

EC50 | Top | Binder
9.74 nM | 42200 | B1
13.6 nM | 61600 | B2
9.2 nM | 68900 | B3
278 nM | 40500 | B4
4.87 nM | 27600 | B5
3.87 nM | 39700 | B6
